Results on three substances are retold here after PMC3992947.

pKd: −log10 of the molar value.

One assay addresses GST-EnaEVH1 (Drosophila). Kind of assay: pull-down; purified proteins; DiaFH1-Cterm and glutathione-Sepharose beads constant, increasing GST-EVH1, 20 min at 25°; supernatants by SDS-PAGE, bound fraction fit to a quadratic equation.
Assay [1] addresses Mg-ATP-actin (actin filament barbed ends) (UniProt P68135). Kind of assay: TIRF microscopy of single actin filaments; Oregon-green-labeled actin with Drosophila profilin and quantum-dot-clustered biotin-SNAP protein, flow cell at 23°C; barbed end residence time from a single exponential fit.

A word on the pKd: it is the negative decadic logarithm of the Kd, by convention in mol/L. Consider “DiaFH1-carboxyl-terminus (Cterm) (domain or fragment)”, for which the negative logarithm of the Kd (pKd) with GST-EnaEVH1 (Drosophila) is 4.88.
Substance GST-EnaEVH1 (domain or fragment) yielded a concentration of barbed ends nucleated by 10 nM DiaFH1FH2 (from pyrene assays without profilin), 0 to 5.8 μM GST-EnaEVH1 with DiaFH1FH2 (Drosophila) of 0.27 nM.
The substance “QD-biotin-SNAP-EnaΔLinker (natural protein)” displayed a mean barbed end residence time in assay [1] of 95.2 s.
